Reference: patent US20120027769A1 (BHARAT SERUMS AND VACCINES, published 2012)
Values joined by “and” are separate entries in the source; they are usually repeats but may differ in a detail not shown here. Equal entries are not always repeated.

T1: Rhesus D antigen on RhD-positive human red blood cells (human, UniProt Q02161 2-417)
T1 sequence (looked up): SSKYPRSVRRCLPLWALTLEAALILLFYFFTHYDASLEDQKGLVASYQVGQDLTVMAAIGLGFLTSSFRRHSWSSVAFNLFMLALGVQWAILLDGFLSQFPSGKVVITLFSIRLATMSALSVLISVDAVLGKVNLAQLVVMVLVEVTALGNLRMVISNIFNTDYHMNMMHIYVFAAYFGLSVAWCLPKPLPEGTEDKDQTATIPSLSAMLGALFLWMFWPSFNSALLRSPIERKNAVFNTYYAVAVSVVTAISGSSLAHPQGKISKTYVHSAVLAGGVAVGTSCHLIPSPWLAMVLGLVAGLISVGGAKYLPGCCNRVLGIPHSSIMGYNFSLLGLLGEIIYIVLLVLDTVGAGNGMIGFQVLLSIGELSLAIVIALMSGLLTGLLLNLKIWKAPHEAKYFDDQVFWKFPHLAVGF

B1: anti-RhD monoclonal antibody RhD1 (antibody, human IgG1, lambda)
heavy: not shown
light: QSALTQPASVSGSPGQSITISCSGSSSDVGGYKYVSWYQQHPGKAPQLMIYDVNNRPSGVSNRFSGSKSGNTASLTISGLQAEDEADYYCSSYTSSSTRVFGGGTKLTVLGQPKAAPSVTLFPPSSEELQANKATLVCLISDFYPGAVTVAWKADSSPVKAGVETTTPSKQSNNKYAASSYLSLTPEQWKSHKSYSCQVTHEGSTVEKTVAPTECS
B2: anti-RhD monoclonal antibody RhD3 (antibody, human IgG3, kappa, V domains shown)
VH: QVTLKESGPVLVKPTETLTLTCTVSGFSLNNARMGVSWIRQPPGKALEWLAHIFSNDEKSYSTSLKSRLTISKDTSKSQVFLTMTNMDPVDTATYYCARTPITMVRGAIRLYYYYYMDVWGKGTTVTVSS
VL: DIQVTQSPSSLSASVGDRVTINCRASQSIGTYLNWYQQKPGKAPNLLIYAASSLQSGVPSRFSGSGSGTDFTLTISSLQPEDFATYYCQQTYSTPTWTFGRGTKVEIKR
B3: RhD4 (IgG3 variant of RhD1: RhD1V3C heavy chain and RhD1 light chain) (antibody)
heavy: QVQLVQSGAEVKKPGSSVKVSCKASGGIFRTYAISWVRQAPGQGLEWMGGIIPMFGTVNYAQKFQGRVTISADKSTSTAYMELSRLRSEDTAVYYCARPPSGGCGGDCSRRGYYYAMDVWGQGTTITVSSASTKGPSVFPLAPCSRSTSGGTAALGCLVKDYFPEPVTVSWNSGALTSGVHTFPAVLQSSGLYSLSSVVTVPSSSLGTQTYTCNVNHKPSNTKVDKRVELKTPLGDTTHTCPRCPEPKSCDTPPPCPRCPEPKSCDTPPPCPRCPEPKSCDTPPPCPRCPAPELLGGPSVFLFPPKPKDTLMISRTPEVTCVVVDVSHEDPEVQFKWYVDGVEVHNAKTKPREEQFNSTFRVVSVLTVLHQDWLNGKEYKCKVSNKALPAPIEKTISKTKGQPREPQVYTLPPSREEMTKNQVSLTCLVKGFYPSDIAVEWESSGQPENNYNTTPPMLDSDGSFFLYSKLTVDKSRWQQGNIFSCSVMHEALHNRFTQKSLSLSPGK
light: B1 light
notes: IgG3, lambda chimera; The limits were converted from the nucleotide limits: variable region nt 58-448, constant region from nt 449; The NheI site was made by silent mutations only

Columns and labels:
[1] = biological target: T1, Rhesus D antigen on RhD-positive human …; assay: cell-based or functional assay
[2] = biological target: T1, Rhesus D antigen on RhD-positive human …; assay: hemagglutination of bromelain-treated RhD-positive erythrocytes, Technicon Autoanalyzer, against the NIBSC polyclonal standard
Protocol: Briefly, bromelain-treated RhD positive red cells are incubated with various concentrations of anti-RhD antibodies. The cells are allowed to agglutinate over a period of time. The agglutinated cells are removed in the autoanalyzer and the rest of the erythrocytes are lysed using detergent. The optical density of the released hemoglobin is measured spectrophotometrically. The anti-D concentrations of the samples are calculated using a standard graph obtained from various concentrations of the Anti-D standard.

Row | Binder | ADCC EC50 (ng of Active Ab/ml), Average [1] | ADCC EC50 (ng of Active Ab/ml), Experiment 1 [1] | ADCC EC50 (ng of Active Ab/ml), Experiment 2 [1] | Agglutination Titer (µg of Active Ab per mg of Protein) [2]
1 | B1 | 1.1 ng of Active Ab/ml and 0.7 ng of Active Ab/ml | 0.7 ng of Active Ab/ml and 0.4 ng of Active Ab/ml | 1.5 ng of Active Ab/ml and 0.9 ng of Active Ab/ml | 
2 | B2 | 0.3 ng of Active Ab/ml and 0.2 ng of Active Ab/ml | 0.2 ng of Active Ab/ml and 0.1 ng of Active Ab/ml | 0.3 ng of Active Ab/ml and 0.2 ng of Active Ab/ml | 
3 | B3 | 0.3 ng of Active Ab/ml | 0.1 ng of Active Ab/ml | 0.5 ng of Active Ab/ml | 303 µg of Active Ab per mg of Protein
